Data reported in US20180002381A1 (HONG KONG POLYTECHNIC UNIVERSITY, published 2018).
No end group written: not given here.

B4: Coiled coil domain of UVRAG (228-276) (other)
chain: TSNELKKESESLRLKILVLRNELERQKKALGREVAFLHKQQMALQDKG
notes: They have S at position 238 where the full-length entries have C; also called UVRAG coiled coil domain; UVRAG coiled coil
B5: UVRAG (228-298) (other)
chain: TSNELKKESESLRLKILVLRNELERQKKALGREVAFLHKQQMALQDKGSAFSTEHGKLQLQKDSLSELRKE
B6: Monomeric form of Beclin1 coiled coil domain with L182A mutation (other)
chain: DSEQLQREAKELALEEERLIQELEDVEKNRKVVAENLEKVQAEAERLDQEEAQYQREYSEFKRQQLELDDELKSVENQMRYAQMQLDKLKKTN
notes: The entry already carries L182A

What was measured:
[1] = target: B4; experiment: isothermal titration calorimetry, Beclin 1 construct against UVRAG coiled coil domain
[2] = target: T1, Beclin1 coiled coil domain (wild type) (rat, UniProt Q91XJ1 174-266); experiment: ITC
T1 construct: residues 175-266; it pairs 1:1 with UVRAG; also called CC; entire Beclin1 coiled coil domain

[3] = target: T1, Beclin1 coiled coil domain (wild type); experiment: isothermal titration calorimetry, wild type Beclin1 coiled coil domain and UVRAG (228-298)
Target sequence in this assay (Q91XJ1 174-266 limits assumed): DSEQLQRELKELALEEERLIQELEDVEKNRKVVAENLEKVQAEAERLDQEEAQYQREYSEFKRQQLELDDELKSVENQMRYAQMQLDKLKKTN

[4] = target: B6; experiment: ITC
UVRAG (228-298) = target: B5; experiment: isothermal titration calorimetry, monomeric Beclin1 coiled coil domain (L182A) and UVRAG (228-298)
[5] = target: T1, Beclin1 coiled coil domain (wild type); experiment: ITC; remark: listed apart in the source
endogenous Beclin1 = endogenous Beclin1 (UniProt Q14457 1-450); experiment: cell-based or functional assay
Chain of endogenous Beclin1 (Q14457 whole entry): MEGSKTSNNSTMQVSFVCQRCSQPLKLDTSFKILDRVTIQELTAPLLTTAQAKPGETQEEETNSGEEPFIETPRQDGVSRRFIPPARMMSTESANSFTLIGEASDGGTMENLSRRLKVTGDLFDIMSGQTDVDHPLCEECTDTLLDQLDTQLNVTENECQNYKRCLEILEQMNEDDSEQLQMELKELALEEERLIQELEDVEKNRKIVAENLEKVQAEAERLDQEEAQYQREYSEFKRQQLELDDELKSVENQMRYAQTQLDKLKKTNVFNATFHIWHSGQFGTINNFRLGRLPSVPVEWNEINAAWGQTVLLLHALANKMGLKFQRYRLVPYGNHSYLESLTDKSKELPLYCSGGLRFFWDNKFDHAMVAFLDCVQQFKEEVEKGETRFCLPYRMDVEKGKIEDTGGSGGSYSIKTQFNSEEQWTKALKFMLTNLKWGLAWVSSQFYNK

B1: Beclin 1 coiled coil 4 (CC4) (other)
chain: AERLDQEEAQYQREYSEFKRQQLELDDELKSVENQMRYAQMQADKLKKTN
notes: 7 heptad repeats of the Beclin1 coiled coil domain
- Kd [1]: 157 µM

B2: Beclin 1 coiled coil 1 (CC1), residues 174-223 (other)
chain: DSEQAQRELKELALEEERLIQELEDVEKNRKVVAENLEKVQAEAERLDQE
modifications: not fully specified
- Kd [1]: 8.9 µM

B3: Beclin 1 coiled coil 2 (CC2) (other)
chain: EERLIQELEDVEKNRKVVAENLEKVQAEAERLDQEEAQYQREYSEFKRQ
notes: as for B1
- Kd [1]: 139 µM

Binder: B4
- Kd [2]: ~0.24 µM

Binder: B5
- Kd [3]: ~0.24 µM
- binding result [4]: binds

Binder: B6
- Kd (UVRAG (228-298)): ~0.07 µM

B7: UVRAG 2E (L246E/L250E), coiled coil domain as used in ITC (other)
chain: TSNELKKESECLRLKILVERNEEERQKKALGREVAFLHKQQMALQDKGSAFSTEHGKLQLQKDSLSELRKE
- binding result [5]: no binding

B8: UVRAG 6E (L232E/L239E/L246E/L250E/L264E/L271E), coiled coil domain as used in ITC (other)
chain: TSNEEKKESECERLKILVERNEEERQKKALGREVAFEHKQQMAEQDKGSAFSTEHGKLQLQKDSLSELRKE
- binding result [5]: no binding

B9: UVRAG 5E (L232E/L239E/L246E/L250E/L264E), coiled coil domain as used in ITC (other)
chain: TSNEEKKESECERLKILVERNEEERQKKALGREVAFEHKQQMALQDKGSAFSTEHGKLQLQKDSLSELRKE
- binding result [5]: no binding

B10: FLAG-tagged full length Mus musculus UVRAG wild type (other, not shown: small tags and cut ends)
chain: MSSCASLGGPVPLPPPGPSAALTSGAPARALHVELPSQQRRLRHLRNIAARNIVNRNGHQLLDTYFTLHLCDNEKIFKEFYRSEVIKNSLNPTWRSLDFGIMPDRLDTSVSCFVVKIWGGKEEAFQLLIEWKVYLDGLKYLGQQIHARNQNEIIFGLNDGYYGAPCEHKGHPNAQKNLLQVDQNCVRNSYDVFSLLRLHRAQCAIKQTQVTVQRLGKEIEEKLRLTSTSNELKKESECLRLKILVLRNELERQKKALGREVAFLHKQQMALQDKGSAFSTEHGKLQLQKDSLSELRKECTAKRELFLKTNAQLTIRCRQLLSELSYIYPIDLNEHKDYFVCGVKLPNSEDFQAKEDGSIAVALGYTAHLVSMISFFLQVPLRYPIIHKGSRSTIKDNINDKLTEKEREFPLYPKGGEKLQFDYGVYLLNKNIAQLRYQHGLGTPDLRQTLPNLKNFMEHGLMVRCDRHHISNAIPVPKRQSSTFGGADGGFSAGIPSPDKVHRKRASSENERLQYKTPPPSYNSALTQPGVAMPTSGDSERKVAPLSSSLDTSLDFSKENKKAGVDLGSSVSGDHGNSDSGQEQGEALPGHLAAVNGTALPSEQAGPAGTLLPGSCHPAPSAELCCAVEQAEEIIGLEATGFTSGDQLEALSCIPVDSAVAVECDEQVLGEFEEFSRRIYALSENVSSFRRPRRSSDK
- EGFR remaining after 5 hours in A549 cells (endogenous Beclin1): < 10%
- half-life of EGFR in A549 cells (endogenous Beclin1): ~2 h

B11: FLAG-tagged full length Mus musculus UVRAG 2E (L246E/L250E) (other, not shown: small tags and cut ends)
chain: MSSCASLGGPVPLPPPGPSAALTSGAPARALHVELPSQQRRLRHLRNIAARNIVNRNGHQLLDTYFTLHLCDNEKIFKEFYRSEVIKNSLNPTWRSLDFGIMPDRLDTSVSCFVVKIWGGKEEAFQLLIEWKVYLDGLKYLGQQIHARNQNEIIFGLNDGYYGAPCEHKGHPNAQKNLLQVDQNCVRNSYDVFSLLRLHRAQCAIKQTQVTVQRLGKEIEEKLRLTSTSNELKKESECLRLKILVERNEEERQKKALGREVAFLHKQQMALQDKGSAFSTEHGKLQLQKDSLSELRKECTAKRELFLKTNAQLTIRCRQLLSELSYIYPIDLNEHKDYFVCGVKLPNSEDFQAKEDGSIAVALGYTAHLVSMISFFLQVPLRYPIIHKGSRSTIKDNINDKLTEKEREFPLYPKGGEKLQFDYGVYLLNKNIAQLRYQHGLGTPDLRQTLPNLKNFMEHGLMVRCDRHHISNAIPVPKRQSSTFGGADGGFSAGIPSPDKVHRKRASSENERLQYKTPPPSYNSALTQPGVAMPTSGDSERKVAPLSSSLDTSLDFSKENKKAGVDLGSSVSGDHGNSDSGQEQGEALPGHLAAVNGTALPSEQAGPAGTLLPGSCHPAPSAELCCAVEQAEEIIGLEATGFTSGDQLEALSCIPVDSAVAVECDEQVLGEFEEFSRRIYALSENVSSFRRPRRSSDK
- EGFR remaining after 5 hours in A549 cells (endogenous Beclin1): ~5%

B12: FLAG-tagged full length Mus musculus UVRAG 1E (L246E) (other, not shown: small tags and cut ends)
chain: MSSCASLGGPVPLPPPGPSAALTSGAPARALHVELPSQQRRLRHLRNIAARNIVNRNGHQLLDTYFTLHLCDNEKIFKEFYRSEVIKNSLNPTWRSLDFGIMPDRLDTSVSCFVVKIWGGKEEAFQLLIEWKVYLDGLKYLGQQIHARNQNEIIFGLNDGYYGAPCEHKGHPNAQKNLLQVDQNCVRNSYDVFSLLRLHRAQCAIKQTQVTVQRLGKEIEEKLRLTSTSNELKKESECLRLKILVERNELERQKKALGREVAFLHKQQMALQDKGSAFSTEHGKLQLQKDSLSELRKECTAKRELFLKTNAQLTIRCRQLLSELSYIYPIDLNEHKDYFVCGVKLPNSEDFQAKEDGSIAVALGYTAHLVSMISFFLQVPLRYPIIHKGSRSTIKDNINDKLTEKEREFPLYPKGGEKLQFDYGVYLLNKNIAQLRYQHGLGTPDLRQTLPNLKNFMEHGLMVRCDRHHISNAIPVPKRQSSTFGGADGGFSAGIPSPDKVHRKRASSENERLQYKTPPPSYNSALTQPGVAMPTSGDSERKVAPLSSSLDTSLDFSKENKKAGVDLGSSVSGDHGNSDSGQEQGEALPGHLAAVNGTALPSEQAGPAGTLLPGSCHPAPSAELCCAVEQAEEIIGLEATGFTSGDQLEALSCIPVDSAVAVECDEQVLGEFEEFSRRIYALSENVSSFRRPRRSSDK
- EGFR remaining after 5 hours in A549 cells (endogenous Beclin1): < 10%
- half-life of EGFR in A549 cells (endogenous Beclin1): ~2 h

B13: Beclin 1 coiled coil 3 (CC3) (other)
chain: RKVVAENLEKVQAEAERLDQEEAQYQREYSEFKRQQLELDDELKSVENQ
notes: as for B1
- Kd [1]: 671 µM
